The test system of this data set is MS2 coat protein. In words: apparent KD of MS2 coat protein; designed switch direction (-1 OFF switch, 1 ON switch): -1; higher = weaker reporter binding. The gist of the method: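 Normalised cluster fluorescence was curve-fitted, and each design's median over clusters is its apparent KD. Before this, SNAP-549-labelled MS2 coat protein was titrated from 0.7 or 1.5 nM, doubling to 3 µM, over RNA switches transcribed on Illumina chips by stalled E. coli RNA polymerase. Titrations had no input, 200 uM small-molecule ligand, or an oligonucleotide input, and steps lasted 0.8–1.5 h (lowest) to 10–20 min (highest).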

Where [1] appears, read: Eterna round: R95, input ligand: FMN 200 uM.
Setting [2] is: Eterna round: R95, input ligand: microRNA oligo, concentration not stated.
Where [3] appears, read: Eterna round: R95, input ligand: none.

The source of these data is the supplement of paper PMC9170038.

In the case of “AGUAACCGUCACGAAAGUGAUGGUUACACAAGCAAAUGUACAUGAGGAUCACCCAUGUCCUCAAUUGCUCGUCUUAU [Sensor 3 - 50] (puzzle: Sensor v3, turn-off variant 2)”, the “apparent KD of MS2 coat protein” value under setting [1] stood at 106 nM, the “apparent KD of MS2 coat protein” value under setting [2] was determined as 165 nM and the “apparent KD of MS2 coat protein” value under setting [3] turned out to be 137 nM.

Turning to “AGUAACUAUCACGAAAGUGAUAGUUACAAAACAAGUGAAACAUGAGGAUCACCCAUGUCCUCAUUUGCUCGUCUUAU [Sensor 3 - 2] (puzzle: Sensor v3, turn-off variant 2)”, the “apparent KD of MS2 coat protein” value under setting [1] came out at 118 nM, the “apparent KD of MS2 coat protein” value under setting [2] worked out at 257 nM and the “apparent KD of MS2 coat protein” value under setting [3] turned out to be 189 nM.

As to “AGUAACUAUCACGAAAGUGAUAGUUACAAACAAGUGGAAACAUGAGGAUCACCCAUGUCCUCAUUUGCUCGUCUUAU [Sensor 3 - 6] (puzzle: Sensor v3, turn-off variant 2)”, the “apparent KD of MS2 coat protein” value turned out to be 574 nM under setting [1], 556 nM under setting [2] and 503 nM under setting [3].

In the case of “AGUAACUAUCACGAAAGUGAUAGUUACAACAAGUGAUAAACAUGAGGAUCACCCAUGUCCUCAUUUGCUCGUCUUAU [Sensor 3 - 9] (puzzle: Sensor v3, turn-off variant 2)”, the “apparent KD of MS2 coat protein” value runs as follows: under setting [1], 256 nM; under setting [2], 283 nM; under setting [3], 326 nM.

Turning to “AGUAACUAUCACGAAAGUGAUAGUUACAAUAGCAGUGAAACAUGAGGAUCACCCAUGUCCUCAUUUGCUCGUCUUAU [Sensor 3 - 23] (puzzle: Sensor v3, turn-off variant 2)”, the “apparent KD of MS2 coat protein” value by setting is: under setting [1], 49.6 nM; under setting [2], 566 nM; under setting [3], 61.2 nM.

“AGUAACUAUCACGAAAGUGAUAGUUACGCAAGCAGUGAAACAUGAGGAUCACCCAUGUCCUCAUUUGCUCGUCUUAU [Sensor 3 - 26] (puzzle: Sensor v3, turn-off variant 2)”: the “apparent KD of MS2 coat protein” value by setting is: under setting [1], 53.9 nM; under setting [2], 435 nM; under setting [3], 48.6 nM.

In the case of “AGUACUAACACGAGAGUGUUAGUACUAUAAGCUUGUGUUACAUGAGGAUCACCCAUGUCCUCAUAAGCUCGUCUUAU [Mat - Sensor v3 - Turn-off var 2 - D79] (puzzle: Sensor v3, turn-off variant 2)”, the “apparent KD of MS2 coat protein” value by setting is: under setting [1], 124 nM; under setting [2], 40.5 nM; under setting [3], 116 nM.

Turning to “AGUACUAACACGUGAGUGUUAGUACAAUAAGCUUGUGAAACAUGAGGAUCACCCAUGUCCUCAUAAGCUCGUCUUAU [salish99_TOv2_r3_061] (Eterna round: R96, puzzle: Sensor v3, turn-off variant 2)”, the “apparent KD of MS2 coat protein” value by setting is: (input ligand: FMN 200 uM) 16.5 nM; (input ligand: microRNA oligo, concentration not stated) 496 nM; (input ligand: none) 18.5 nM.

“AGUACUAACACGUGAGUGUUAGUACAAUAAGCUUGUGAAACAUGAGGAUCACCCAUGUCCUCAUAAGCUCGUCUUAU [salish99_TOv2_r3_061] (puzzle: Sensor v3, turn-off variant 2)”: the “apparent KD of MS2 coat protein” value is, setting by setting: under setting [1], 17.4 nM; under setting [2], 1070 nM; under setting [3], 15.6 nM.

Regarding “AGUAGAUCUACGCUUGCGUGGAUCUGCAAUGCAGGUGUUACAUGAGGAUCACCCAUGUCCUCGUUUGCUCGUCUUAG [JL turnoff v2 99.11] (puzzle: Sensor v3, turn-off variant 2)”, the “apparent KD of MS2 coat protein” value runs as follows: under setting [1], 145 nM; under setting [2], 508 nM; under setting [3], 133 nM.

For “AGUAGAUCUACGCUUGCGUGGAUCUGCGAGGCAGGUGUAACAUGAGGAUCACCCAUGUCCUCAUUUGUUCGUCUUAU [JL turnoff v2 99.19] (puzzle: Sensor v3, turn-off variant 2)”, the “apparent KD of MS2 coat protein” value reads like this: under setting [1], 379 nM; under setting [2], 377 nM; under setting [3], 477 nM.
